From patent WO2011158973A1 (dated 2011)

What was measured:
mouse fibrinogen [1] = target: T1, mouse fibrinogen (mouse, UniProt E9PV24 20-557; Q8K0E8 20-481; Q8VCM7 26-436, limits assumed); assay: ELISA, hybridoma 102-10 culture supernatant on fibrinogen plate (Fig. 1C)
T1 construct: also called fibrinogen (4)
T1 sequence (looked up) 1: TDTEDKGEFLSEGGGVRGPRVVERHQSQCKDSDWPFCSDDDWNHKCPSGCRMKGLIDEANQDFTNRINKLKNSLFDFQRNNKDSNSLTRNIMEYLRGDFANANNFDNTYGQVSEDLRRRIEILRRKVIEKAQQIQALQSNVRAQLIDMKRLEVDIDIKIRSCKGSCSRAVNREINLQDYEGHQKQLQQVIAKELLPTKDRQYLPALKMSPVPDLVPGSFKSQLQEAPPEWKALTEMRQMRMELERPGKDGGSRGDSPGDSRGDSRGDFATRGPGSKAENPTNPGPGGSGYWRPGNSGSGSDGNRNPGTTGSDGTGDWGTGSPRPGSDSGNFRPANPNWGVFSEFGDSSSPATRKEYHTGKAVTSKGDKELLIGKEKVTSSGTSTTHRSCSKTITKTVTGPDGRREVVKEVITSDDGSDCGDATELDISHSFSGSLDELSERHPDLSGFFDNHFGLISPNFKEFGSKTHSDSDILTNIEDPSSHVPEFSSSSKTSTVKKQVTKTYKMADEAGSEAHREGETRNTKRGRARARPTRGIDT
T1 sequence (looked up) 2: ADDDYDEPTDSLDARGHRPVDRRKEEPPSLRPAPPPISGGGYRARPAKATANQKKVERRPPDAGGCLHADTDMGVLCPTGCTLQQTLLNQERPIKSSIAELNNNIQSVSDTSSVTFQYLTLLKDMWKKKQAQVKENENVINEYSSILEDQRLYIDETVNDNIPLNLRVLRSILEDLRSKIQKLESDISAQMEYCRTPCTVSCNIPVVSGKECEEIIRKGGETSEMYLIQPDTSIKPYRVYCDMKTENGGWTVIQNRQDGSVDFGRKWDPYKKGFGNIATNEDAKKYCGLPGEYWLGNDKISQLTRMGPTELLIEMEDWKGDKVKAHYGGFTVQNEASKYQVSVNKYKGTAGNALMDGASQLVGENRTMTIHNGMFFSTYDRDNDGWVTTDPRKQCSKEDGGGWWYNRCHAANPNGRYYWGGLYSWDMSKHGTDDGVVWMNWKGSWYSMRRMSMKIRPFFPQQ
T1 sequence (looked up) 3: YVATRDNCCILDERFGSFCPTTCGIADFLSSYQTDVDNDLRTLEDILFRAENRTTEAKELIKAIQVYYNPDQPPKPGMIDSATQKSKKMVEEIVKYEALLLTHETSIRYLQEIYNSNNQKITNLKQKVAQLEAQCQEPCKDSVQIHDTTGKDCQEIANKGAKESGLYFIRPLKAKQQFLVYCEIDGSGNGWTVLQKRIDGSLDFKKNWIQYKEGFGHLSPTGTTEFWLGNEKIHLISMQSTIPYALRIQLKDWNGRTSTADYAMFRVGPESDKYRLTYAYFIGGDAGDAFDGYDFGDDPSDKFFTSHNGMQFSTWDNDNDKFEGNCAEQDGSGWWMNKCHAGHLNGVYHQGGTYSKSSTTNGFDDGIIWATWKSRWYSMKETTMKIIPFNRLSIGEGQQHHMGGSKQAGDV

human fibrin [2] = target: T2, human fibrin (human, UniProt P02671 36-629; P02675 45-491; P02679 27-437, limits assumed); assay: ELISA, hybridoma culture supernatant (undiluted) on fibrin plate; selection of the clone
T2 construct: Made on the plate: fibrinogen (Sigma) coated at 50 ug/ml, dried, then treated with 10 NIH U/ml human thrombin with 10 mM CaCl2 and 7 mM L-cysteine; also called fibrin plate; fibrin (1)
T2 sequence (looked up) 1: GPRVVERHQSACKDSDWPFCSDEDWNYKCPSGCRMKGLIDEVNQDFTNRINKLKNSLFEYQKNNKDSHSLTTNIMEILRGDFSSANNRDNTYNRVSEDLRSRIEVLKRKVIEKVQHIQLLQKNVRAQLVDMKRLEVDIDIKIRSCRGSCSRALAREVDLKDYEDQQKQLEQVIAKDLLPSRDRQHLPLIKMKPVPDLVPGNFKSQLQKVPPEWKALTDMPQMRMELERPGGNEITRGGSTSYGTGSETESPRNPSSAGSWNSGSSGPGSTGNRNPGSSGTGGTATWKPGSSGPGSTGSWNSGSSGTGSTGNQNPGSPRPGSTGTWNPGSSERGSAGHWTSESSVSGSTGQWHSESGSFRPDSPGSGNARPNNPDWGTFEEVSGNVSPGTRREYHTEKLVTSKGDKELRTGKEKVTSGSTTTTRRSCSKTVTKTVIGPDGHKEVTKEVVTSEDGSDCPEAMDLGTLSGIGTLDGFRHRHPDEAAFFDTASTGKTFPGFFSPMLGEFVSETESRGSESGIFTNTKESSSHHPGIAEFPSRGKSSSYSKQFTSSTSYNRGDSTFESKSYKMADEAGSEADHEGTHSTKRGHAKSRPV
T2 sequence (looked up) 2: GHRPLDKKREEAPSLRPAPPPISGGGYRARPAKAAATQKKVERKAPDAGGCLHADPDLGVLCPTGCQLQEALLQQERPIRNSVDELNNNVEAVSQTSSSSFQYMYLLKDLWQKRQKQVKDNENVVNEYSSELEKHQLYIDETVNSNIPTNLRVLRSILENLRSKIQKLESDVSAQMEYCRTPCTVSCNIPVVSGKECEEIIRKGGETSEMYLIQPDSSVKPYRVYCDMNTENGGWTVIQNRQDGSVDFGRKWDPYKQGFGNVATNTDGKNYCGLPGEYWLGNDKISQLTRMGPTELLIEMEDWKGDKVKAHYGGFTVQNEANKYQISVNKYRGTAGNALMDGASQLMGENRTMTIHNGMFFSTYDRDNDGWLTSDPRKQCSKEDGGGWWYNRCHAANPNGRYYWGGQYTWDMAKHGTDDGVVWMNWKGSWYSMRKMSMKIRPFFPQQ
T2 sequence (looked up) 3: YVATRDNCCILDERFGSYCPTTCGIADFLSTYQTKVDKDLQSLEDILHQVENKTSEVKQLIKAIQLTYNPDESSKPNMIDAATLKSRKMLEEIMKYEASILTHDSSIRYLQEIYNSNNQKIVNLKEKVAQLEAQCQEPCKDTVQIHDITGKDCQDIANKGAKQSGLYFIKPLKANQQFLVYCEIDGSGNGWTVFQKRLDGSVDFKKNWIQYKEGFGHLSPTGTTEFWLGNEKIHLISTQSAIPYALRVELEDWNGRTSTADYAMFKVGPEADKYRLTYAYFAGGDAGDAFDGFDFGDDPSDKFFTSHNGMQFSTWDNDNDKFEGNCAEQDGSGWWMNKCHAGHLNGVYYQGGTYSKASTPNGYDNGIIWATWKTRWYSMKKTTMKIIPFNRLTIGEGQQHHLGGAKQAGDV

human fibrinogen [3] = target: T3, human fibrinogen (human, UniProt P02671 20-629; P02675 31-491; P02679 27-437, limits assumed); assay: ELISA, hybridoma culture supernatant (undiluted) on fibrinogen plate; selection of the clone
T3 construct: Bought (Sigma), coated on 96-well plates at 50 ug/ml in TBS pH 8.5; also called fibrinogen (Sigma) plate; fibrinogen (2)
T3 sequence (looked up) 1: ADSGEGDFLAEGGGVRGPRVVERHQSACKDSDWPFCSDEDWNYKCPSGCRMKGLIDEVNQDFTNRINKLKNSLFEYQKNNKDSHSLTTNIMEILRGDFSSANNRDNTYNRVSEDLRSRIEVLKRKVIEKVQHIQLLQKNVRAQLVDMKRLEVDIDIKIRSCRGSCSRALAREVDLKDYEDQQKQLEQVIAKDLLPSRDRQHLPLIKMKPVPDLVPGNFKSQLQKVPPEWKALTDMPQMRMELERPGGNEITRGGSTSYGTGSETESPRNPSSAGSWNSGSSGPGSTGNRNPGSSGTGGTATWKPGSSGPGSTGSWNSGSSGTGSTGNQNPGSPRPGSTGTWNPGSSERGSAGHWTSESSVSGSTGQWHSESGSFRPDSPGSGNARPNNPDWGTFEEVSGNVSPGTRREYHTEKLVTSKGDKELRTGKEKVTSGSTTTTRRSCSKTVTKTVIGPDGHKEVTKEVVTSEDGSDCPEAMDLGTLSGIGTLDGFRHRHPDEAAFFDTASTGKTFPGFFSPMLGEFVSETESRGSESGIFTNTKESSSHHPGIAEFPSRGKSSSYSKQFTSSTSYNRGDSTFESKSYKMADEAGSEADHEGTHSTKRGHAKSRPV
T3 sequence (looked up) 2: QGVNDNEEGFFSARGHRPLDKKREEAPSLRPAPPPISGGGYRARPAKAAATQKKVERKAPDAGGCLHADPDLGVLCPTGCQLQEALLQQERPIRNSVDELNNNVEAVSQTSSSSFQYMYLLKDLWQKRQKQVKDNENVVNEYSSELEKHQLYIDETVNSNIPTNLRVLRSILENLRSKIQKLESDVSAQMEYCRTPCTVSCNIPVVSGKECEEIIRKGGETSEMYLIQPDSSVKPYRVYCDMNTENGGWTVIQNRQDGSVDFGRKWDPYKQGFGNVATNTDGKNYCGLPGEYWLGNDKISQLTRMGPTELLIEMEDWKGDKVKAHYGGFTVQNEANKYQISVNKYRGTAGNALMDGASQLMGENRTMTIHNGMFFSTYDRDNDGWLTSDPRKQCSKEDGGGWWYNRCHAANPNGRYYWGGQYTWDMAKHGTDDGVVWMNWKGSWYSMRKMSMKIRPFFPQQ
T3 sequence (looked up) 3: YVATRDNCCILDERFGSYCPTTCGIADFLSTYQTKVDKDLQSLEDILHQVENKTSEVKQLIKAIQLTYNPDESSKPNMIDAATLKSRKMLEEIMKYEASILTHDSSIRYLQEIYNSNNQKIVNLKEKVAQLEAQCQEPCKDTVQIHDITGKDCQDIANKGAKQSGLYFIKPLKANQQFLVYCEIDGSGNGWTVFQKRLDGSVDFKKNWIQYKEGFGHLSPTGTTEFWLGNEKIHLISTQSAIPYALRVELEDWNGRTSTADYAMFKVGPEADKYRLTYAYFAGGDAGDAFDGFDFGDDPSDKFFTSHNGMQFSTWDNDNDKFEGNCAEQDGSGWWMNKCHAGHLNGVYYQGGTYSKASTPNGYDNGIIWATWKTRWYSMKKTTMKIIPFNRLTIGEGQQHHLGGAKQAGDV

human fibrin [4] = target: T2, human fibrin; assay: ELISA, purified chimeric antibody on fibrin plate (Fig. 3)
human fibrinogen [5] = target: T3, human fibrinogen; assay: ELISA, purified chimeric antibody on fibrinogen plate (Fig. 3)
mouse fibrinogen [6] = target: T1, mouse fibrinogen; assay: as above

Binder | binding result (mouse fibrinogen [1]) | binding result (human fibrin [2]) | binding result (human fibrinogen [3]) | binding result (human fibrin [4]) | binding result (human fibrinogen [5]) | binding result (mouse fibrinogen [6])
mouse anti-fibrin IgM antibody produced by hybridoma cell line 102-10 (accession number NITE BP-923) (antibody, V domains shown, Mouse IgM; Tested as hybridoma culture supernatant in ELISA; also called clone 102-10; mouse IgM antibody) VH: QIQLVQSGPELKKPGETVKISCKASGYTFTNYGMNWVKQAPGKGLKWMGWINTYTGEATYADDFKGRFAFSLETSANTAYVQINNLKNEDTATYFCARLMDYWGQGTSVTVSS VL: DIQMTQSPSSLSASLGGKVTITCKASQDINKYIAWFQHKPGKGPRLLIHYTSTLQPGIPSRFSGSGSGRDYSFSISNLEPEDLATYYCLQYDNLTWTFGGGTKLEIK | no binding | binds | no binding | – | – | –
human type anti-fibrin chimeric antibody (human type IgG clone 102-10Hu) (antibody, V domains shown, made in CHO cells, purified on Protein G and hydroxyapatite; They may include a leader peptide; no cleavage site is stated; also called human chimeric antibody; human chimeric anti-fibrin IgG) VH: QIQLVQSGPELKKPGETVKISCKASGYTFTNYGMNWVKQAPGKGLKWMGWINTYTGEATYADDFKGRFAFSLETSANTAYVQINNLKNEDTATYFCARLMDYWGQGTSVTVSS VL: DIQMTQSPSSLSASLGGKVTITCKASQDINKYIAWFQHKPGKGPRLLIHYTSTLQPGIPSRFSGSGSGRDYSFSISNLEPEDLATYYCLQYDNLTWTFGGGTKLEIK | – | – | – | binds | no binding | no binding
